PMC6001692, “Chlamydial virulence factor TarP mimics talin to disrupt the talin‐vinculin complex” (Febs Letters, 2018)
Where no end group is shown, it is not given here.

Tests used:
[1] = molecular target: T1, vinculin Vd1 (residues 1–259) (Gallus gallus, UniProt P12003); assay: Fluorescence polarisation assay, fluorescein-labelled peptides titrated with vinculin head Vd1; assay type: binding, Chicken; details: FP; negative control; Kd ND in Fig. 1D
T1 construct: Chicken vinculin Vd1 (residues 1–259); 6xHis (cleaved yes); made in house; host or cells: E. coli BL21 (DE3)
Description: Peptides were coupled to a thiol‐reactive fluorescein dye via the terminal cysteine. Stock solutions were made in phosphate‐buffered saline (PBS; 137 mM NaCl, 27 mM KCl, 100 mM Na2HPO4, 18 mM KH2PO4, pH 7.4), 1 mM TCEP and 0.05% Triton X‐100. Excess dye was removed using a PD‐10 desalting column (GE Healthcare, Chicago, IL, USA). Titrations were performed in PBS using a constant 1 μM concentration of fluorescein‐coupled peptide with increasing concentration of protein; final volume 100 μL in a black 96‐well plate. Fluorescent polarisation (FP) measurements were recorded on a BMGLabTech CLARIOstar plate reader at room temperature and analysed using GraphPad Prism. K d values were calculated with nonlinear curve fitting using a one‐site total binding model.
In this assay, synthetic VBS peptides (Materials and methods) were fluorescently labelled with fluorescein and titrated against an increasing concentration of Vd1.

[2] = molecular target: T2, FAK‐FAT domain (residues 941–1090) (Mus musculus, UniProt P34152); assay: Fluorescence polarisation assay, fluorescein-labelled LD-motif peptides titrated with FAK-FAT domain; assay type: binding
T2 construct: the FAK‐FAT domain (residues 941–1090); 6xHis (cleaved yes); made in house; host or cells: E. coli BL21 (DE3)
T2 sequence (P34152 904-1052 limits assumed): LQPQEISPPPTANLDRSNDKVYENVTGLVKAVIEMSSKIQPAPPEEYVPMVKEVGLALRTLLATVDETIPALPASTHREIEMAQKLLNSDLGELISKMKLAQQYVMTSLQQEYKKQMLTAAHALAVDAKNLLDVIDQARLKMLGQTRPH
From the text: Chicken vinculin Vd1 (residues 1–259), murine talin R10 (residues 1815–1973), and the FAK‐FAT domain (residues 941–1090) were cloned into a pET151 vector (Invitrogen) and expressed in E .coli BL21 (DE3) cells cultured in LB. Standard nickel‐affinity chromatography was used to purify the His‐tagged recombinant proteins as described previously 15. The proteins were further purified using anion‐exchange chromatography following cleavage of the 6xHis‐tag with TEV protease. Protein concentrations were determined using the respective extinction coefficients at 280 nm.
Peptides with either a C‐ or N‐terminal cysteine were synthesised by GLBiochem (China).
Peptides were coupled to a thiol‐reactive fluorescein dye via the terminal cysteine. Stock solutions were made in phosphate‐buffered saline (PBS; 137 mM NaCl, […], […], […], pH 7.4), 1 mM TCEP and 0.05% Triton X‐100. Excess dye was removed using a PD‐10 desalting column (GE Healthcare, Chicago, IL, USA). […] Fluorescent polarisation (FP) measurements were recorded on a BMGLabTech CLARIOstar plate reader at room temperature and analysed using GraphPad Prism. K d values were calculated with nonlinear curve fitting using a one‐site total binding model. […]

[3] = molecular target: T3, Chicken vinculin Vd1 (residues 1–259) (chicken, UniProt P12003 1-259); assay: SEC-MALS; analytical gel filtration, Superdex-75, 4 °C, 50 mM Tris pH 7.5, 150 mM NaCl, 2 mM DTT; 100 μM of each protein at 1:1 (talin:Vd1), incubated at 37 °C for 30 min; details: both partners purified
T3 construct: also called vinculin head; vinculin head domain
T3 sequence (looked up): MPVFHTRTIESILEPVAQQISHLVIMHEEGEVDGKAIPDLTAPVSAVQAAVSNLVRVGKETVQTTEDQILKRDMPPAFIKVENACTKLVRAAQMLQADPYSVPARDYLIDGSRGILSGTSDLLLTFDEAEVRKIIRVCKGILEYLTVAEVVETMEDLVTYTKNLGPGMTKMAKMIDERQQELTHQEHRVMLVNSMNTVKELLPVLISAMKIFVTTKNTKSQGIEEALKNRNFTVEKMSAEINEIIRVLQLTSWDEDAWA

[4] = molecular target: FAK‐FAT domain (residues 941–1090); assay: fluorescence polarisation; 1 μM fluorescein-coupled peptide constant, increasing concentration of protein; PBS, room temperature, 96-well plate; one-site total binding fit; triplicate
[5] = molecular target: T3, Chicken vinculin Vd1 (residues 1–259); assay: as above; details: both partners purified

In the case of “EGAEGLEHLLPQLRSHLDDAFDQQGN‐C [TarP LD, synthetic LD-motif peptide of C. caviae TarP, residues 655–680, with C-terminal cysteine]”, the “Interaction with Vd1 (in words)” value [1] is reported as “does not interact with Vd1” and the “Binding to FAK-FAT by FP (in words)” value ([2]; fluorescein-labelled peptide, Kd ND in Fig. 4B) is reported as “no increase in polarisation”.

Work on `CC(C)C[C@H](NC(=O)[C@H](CCC(=O)O)NC(=O)[C@H](CC(C)C)NC(=O)[C@H](CC(C)C)NC(=O)[C@H](CC(C)C)NC(=O)[C@H](CCCNC(=N)N)NC(=O)[C@H](CC(=O)O)NC(=O)[C@H](CC(C)C)NC(=O)[C@H](CCC(=O)O)NC(=O)[C@H](CO)NC(=O)[C@H](CC(C)C)NC(=O)[C@H](CC(N)=O)NC(=O)[C@@H](N)CS)C(=O)N[C@@H](CC(N)=O)C(=O)O` [Paxillin LD2, reference compound] yielded a Kd ([2]; FP, 1 μM fluorescein-coupled peptide, increasing FAK-FAT, PBS, room temperature, ± SE, read-out: Dissociation constant Kd for binding to FAK-FAT) of 9.01 µM.

B1: murine talin R10 (residues 1815–1973) (domain or fragment, UniProt P26039 1815-1973, looked up)
chain: NEAASAAGVVGGMVDSITQAINQLDEGPMGDPEGSFVDYQTTMVRTAKAIAVTVQEMVTKSNTSPEELGPLANQLTSDYGRLASQAKPAAVAAENEEIGAHIKHRVQELGHGCSALVTKAGALQCSPSDVYTKKELIECARRVSEKVSHVLAALQAGNR
notes: also called talin rod domain R10
With B1 the “stoichiometry N” value [3] was 1.

B2: Pax_LD2 peptide (paxillin residues 141–153) with N-terminal cysteine, fluorescein-coupled (peptide)
peptide: CNLSELDRLLLELN
modifications: fluorescein (thiol-reactive dye) coupled via the N-terminal cysteine
With B2 the Kd [4] was 9 µM.

B3: mTal1_VBS36 peptide (talin residues 1622–1656) with N-terminal cysteine, fluorescein-coupled (peptide)
peptide: C(fluorescein)VNPRDPPRWSVLAGHSRTVSDSIKKLITSMRDKAP
notes: also called talin VBS36; source: synthetic peptide (GLBiochem)
With B3 the Kd [5] was 1.03 µM.

B4: TarP_VBS1 peptide (C. caviae residues 850–868) with C-terminal cysteine, fluorescein-coupled (peptide)
peptide: LLEAARNTTTMLSKTLSKVC(fluorescein)
notes: source: synthetic peptide (GLBiochem)
In the case of B4, the Kd [5] is reported as 1.29 µM.
